Source: the supplement of paper PMC12764529
± gives the half width of the 95% confidence interval.

Key:
[1] = folding stability dG unfold (combined trypsin and chymotrypsin); higher = more stable
How it was run: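 Designed mini-proteins with no cysteine and under 80 residues were kept only if AlphaFold2 dimer inter-PAE was above 15. In a PA-tagged cDNA display construct, they were digested with trypsin and chymotrypsin and then sequenced. K50 was inferred by Bayesian fitting of counts, and unfolding free energy was derived per protease or combined against a sequence-predicted unfolded-state K50 and a shared folded-state K50.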

[2] = folding stability dG unfold from trypsin proteolysis; higher = more stable
Description: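 Folding stability of de novo designed mini-proteins (<80 aa, no Cys; designed by TrROS, TrMRF, ProteinMPNN and the joint model) was measured by cDNA display proteolysis with trypsin and chymotrypsin. Each protease was used at 11 concentrations in a threefold dilution series plus a no-protease condition. K50 was inferred by Bayesian fitting of sequencing counts, and dG unfold was derived against a sequence-predicted unfolded-state K50 (Tsuboyama et al. method). Sequences shown include variable-length N-terminal GS-type padding (SAGGSAGG...) inside a display construct carrying a PA tag. Rows were kept only if the AF2 dimer inter-PAE was >15, to exclude likely homo-oligomers.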

Sequence	folding stability dG unfold [1] [kcal/mol]	folding stability dG unfold [2] [kcal/mol]
SAGGETEVVETNASPAELAERVAEALAAGREVTVTLPDGTVLDAGPDLADLPADTPVRLEFTPAVAASAGGS [r16_31_JUSTAS]	0.257 ± 0.17	0.841 ± 0.032
SAGGFKITEVEKDEKKGYPWVSIRIPPKSTLKKLKNMPGPVRIHNPEPGQWIHMPVDDPEEFLDKLLKSAGG [r13_604_TrROS]	-0.516 ± 0.94	0.274 ± 0.18
SAGGHRMDIQFDGSPDKIEEIQKKIHKKWPDYKVDDIEVNPGNPDQVTIRIEMDNGIPMNEIQEALMSAGGS [r16_180_TrROS]	< -1	-1.32 ± 0.22
SAGGKIREVEIEEFDPDNGWVMITFNMPPEDLDKMKPIKLPGIKDVHWDPGNDHISASMPLEEAKEASAGGS [r16_614_TrROS]	-0.5 ± 0.41	-0.121 ± 0.17
SAGGLDSAPPVEVKVEVEEEKTKDPNSDSEVTKYKITVTTTVGGTPIVTEEESIVYKKPDGTIIVEKKSAGG [r19_260_JUSTAS]	-0.242 ± 0.96	-0.403 ± 0.28
SAGGMEVVENPGGNLKIIEKEPEGPEFVKTTTTTIKTFKNPGGSTSSTITTTTTTVKISKSKNPELLSAGGS [r16_802_JUSTAS]	-0.784 ± 0.3	-0.742 ± 0.26
SAGGMKIRLDNGKEIEINQSPGYMSIQIRPPDDGKKREYPFPMPDGENSMEDFVNEIANHGRITEIEPSAGG [r13_579_TrROS]	-0.249 ± 0.23	0.522 ± 0.075
SAGGMKTTFTITHPDAEKAREALEKAVPSDLDVEPEFTPTPDGYTTTVTVPAEHPEVAAAALAAALASAGGS [r16_43_JUSTAS]	< -1	0.0621 ± 0.09
SAGGMKVEVVETPTSLQIVTTTISTEKIPFNDVTLTTVTTEVKTIPLPEKPPVGLPYFDPEGKPLLLSAGGS [r8_46_JUSTAS]	-0.424 ± 0.18	-0.0171 ± 0.07
SAGGMMKIKITFADGTTKEIELPEDVTEVTITYDEKTGKVTITVRLKNGETKTITIPADKITKIEIESAGGS [r16_658_TrROS_Hall]	> 6	5.39 ± 0.7
SAGGMNPDNFKPVRTYTLPFDGHKIEVEVWEPPNGNPLIPIQLEDDNGKPKGPQWIPPDQIDENGKILSAGG [r13_447_TrROS]	-0.213 ± 0.28	0.343 ± 0.091
SAGGMPEGDFWVRIRIPVPKYEMERDPNDPNDYKMEPEWKPKEIWLPVKSPEALDEFRENGFEIEPFSAGGS [r8_482_TrROS]	-0.137 ± 0.16	0.251 ± 0.091
SAGGMSKEEARKAIENPADATYTFTITTRPSTPTPSSTTTTVTAKVTDPDAFLDAVPEGHSVTVTASSAGGS [r16_116_JUSTAS]	< -1	-0.465 ± 0.14
SAGGMTKPTSSPSPLDPSTPPEEWIAAIEKELPPDWRIVEPRPRPGPRLVTVLAEDPNSGKRVILRASAGGS [r16_250_JUSTAS]	< -1	-0.989 ± 0.55
SAGGMTTTVTVEKFPDGSVTEVTTLPNGIVLTTPLPYTKVVPVDPPDGPAVSWGPVTVTSTESVSSEASAGG [r13_236_JUSTAS]	0.0898 ± 0.26	0.393 ± 0.068
SAGGMTVTVPREGPVTEEDVEKIAAELAAQGLKEVPLVVIETEKGSLPDGRPTELVRERTYYYEYPESAGGS [r16_44_JUSTAS]	< -1	-0.307 ± 0.31
SAGGMYTLSEKTLPDGSKLLTVTRPDKPEEVFLPKEAENLPPETPVTTRGAGGEEVRPVAEILPPALLSAGG [r13_97_JUSTAS]	-0.215 ± 0.18	0.257 ± 0.11
SAGGNYYPMEFRNPENNHEIRITVERDPPGMYRINIQIENPNGNQIPFPMTMPPDDFKPGDEFEIKIPSAGG [r13_959_TrROS]	0.213 ± 0.44	0.676 ± 0.16
SAGGQTIEIPNGITITYYPNNQVTITIRYPGRPLTVTSPYDSPEEAIDNIIEQAREMARPPPPKKKDDSAGG [r13_896_TrROS]	0.68 ± 0.41	0.633 ± 0.16
SAGGSADSVMIPVESPEEIKEELQEGPPKRVELPNPDGERYWIQIDWDDPENIEVMPPDDPEKMKPSAGGSA [r15_11_TrROS]	0.0877 ± 0.28	0.716 ± 0.13
SAGGSAEPPVKEIAEKLIKKSKKPIIATVVEKKKDGYLVTKVKYIPNTGKPIIKVKKITPEELKKKSAGGSA [r15_156_TrMRF]	-0.785 ± 0.7	0.159 ± 0.097
SAGGSAGGAEITIELTEDGTLRITVDGKKLEIRLEPAPPPVEVKTERVLDPDTDELTTRTETVLSAGGSAGG [r6_34_TrROS_Hall]	-0.548 ± 0.43	0.203 ± 0.19
SAGGSAGGDGDFRVSIDPEELPDGQEYKISIQSPDGKPIAEIPIRIPLPPPKPERDDNGKPKPVSAGGSAGG [r6_487_TrROS]	0.216 ± 0.099	0.844 ± 0.025
